In test [1] the target is T1, human PD-L1 expressed on cells (CHO-PD-L1, HCC1954, HCC827) (human, UniProt Q9NZQ7 19-290).
T1 construct: whole, on cells; also called hPD-L1; PD-L1 expressing cells
The test is described as follows: flow cytometry with human SA, inhibition of PD-1 binding to HCC1954 cells. In general terms: A flow cytometer gives signals particle by particle.

The target in test [2] is CD137 on transgenic NF-kB Jurkat reporter cells (Homo sapiens (Human), UniProt Q07011 24-255). The test is described as follows: cell-based or functional assay.
Test [3] deals with T1, human PD-L1 expressed on cells …. The test is described as follows: flow cytometry with human SA, inhibition of PD-1 binding to HCC827 cells.
The target in test [4] is T2, recombinant human CD3E ECD (SinoBiological, cat. 10977-H08H) (human, UniProt P07766 23-126).
T2 construct: extracellular domain; bought protein; also called CD3s
The experiment in a line: SPR, immobilised CD3e ECD, two-state model. For orientation: Surface plasmon resonance follows binding to a sensor surface in real time, without labels.

Test [5] has as its target T2, recombinant human CD3E ECD …. The test is described as follows: SPR, immobilised CD3e ECD, two-state model (kd1).
Another test has as its target T3, mouse serum albumin (mouse, UniProt P07724 25-608).
T3 construct: also called MSA; mouse SA
The experiment in a line: SPR, immobilised MSA, pH 5.5.

Test [6] has as its target T4, recombinant human IL-23R (custom-made by Trenzyme) (human, UniProt Q5VWK5 24-355).
T4 sequence (looked up): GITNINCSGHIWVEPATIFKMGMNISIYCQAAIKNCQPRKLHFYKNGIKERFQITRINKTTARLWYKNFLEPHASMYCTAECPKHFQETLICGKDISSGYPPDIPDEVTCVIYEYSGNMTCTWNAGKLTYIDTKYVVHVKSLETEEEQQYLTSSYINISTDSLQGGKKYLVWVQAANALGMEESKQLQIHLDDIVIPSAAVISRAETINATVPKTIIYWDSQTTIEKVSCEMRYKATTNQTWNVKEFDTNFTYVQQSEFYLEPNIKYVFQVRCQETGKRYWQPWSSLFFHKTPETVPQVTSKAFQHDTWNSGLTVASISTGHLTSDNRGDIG
The test is described as follows: SPR, immobilised IL-23R.

Test [7] has as its target T5, Fc-tagged human PD-L1 extracellular domain (SinoBiological, cat. 10084-H02H) (human, UniProt Q9NZQ7 19-238).
T5 construct: extracellular domain; also called hPD-L1; not shown: Fc tag of the bought protein
The experiment in a line: SPR, captured Fc-PD-L1 ECD.

The target of test [8] is T2, recombinant human CD3E ECD …. The experiment in a line: SPR, immobilised CD3e ECD, two-state model (ka1).
In the next test the target is T6, human serum albumin (human, UniProt P02768 25-609).
T6 construct: also called HSA; human SA
The test is described as follows: SPR, immobilised HSA, pH 5.5.

Test [9] deals with T7, CD3e on Jurkat PD-1 NFAT reporter T cells or on T cells of human PBMCs (human, UniProt P07766 23-207). The experiment in a line: cell-based or functional assay.
Test [10] has as its target T8, recombinant human Her2 ECD (SinoBiological, cat. 10004-HCCH) (human, UniProt P04626 23-652).
T8 construct: extracellular domain; bought protein
The test is described as follows: SPR, immobilised Her2 ECD.

Test [11] deals with T1, human PD-L1 expressed on cells …. The test is described as follows: flow cytometry, inhibition of biotinylated PD-1 binding to HCC827 cells.
For test [12] the target is unchanged. The test is described as follows: flow cytometry, inhibition of biotinylated PD-1 binding to HCC1954 cells.
The target in test [13] is T7, CD3e on Jurkat PD-1 NFAT reporter T …. The test is described as follows: cell-based or functional assay. This is another data set of the same source.
For test [14], the target named is T5, Fc-tagged human PD-L1 extracellular …. The experiment in a line: SPR, captured Fc-PD-L1 ECD, kinetic.

This is an account of results in patent publication US20220411536A1 (NUMAB THERAPEUTICS, published 2022).

Changes are numbered by the printed parent chain.

The term IC50 denotes the midpoint of a concentration-inhibition curve. A lower IC50 goes with higher potency. The Kd is the constant that tells how readily two partners part at equilibrium. The term koff denotes the rate constant with which the complex falls apart. In general, kon refers to a measure of how fast the partners come together.

T3 sequence (P07724 25-608 limits assumed): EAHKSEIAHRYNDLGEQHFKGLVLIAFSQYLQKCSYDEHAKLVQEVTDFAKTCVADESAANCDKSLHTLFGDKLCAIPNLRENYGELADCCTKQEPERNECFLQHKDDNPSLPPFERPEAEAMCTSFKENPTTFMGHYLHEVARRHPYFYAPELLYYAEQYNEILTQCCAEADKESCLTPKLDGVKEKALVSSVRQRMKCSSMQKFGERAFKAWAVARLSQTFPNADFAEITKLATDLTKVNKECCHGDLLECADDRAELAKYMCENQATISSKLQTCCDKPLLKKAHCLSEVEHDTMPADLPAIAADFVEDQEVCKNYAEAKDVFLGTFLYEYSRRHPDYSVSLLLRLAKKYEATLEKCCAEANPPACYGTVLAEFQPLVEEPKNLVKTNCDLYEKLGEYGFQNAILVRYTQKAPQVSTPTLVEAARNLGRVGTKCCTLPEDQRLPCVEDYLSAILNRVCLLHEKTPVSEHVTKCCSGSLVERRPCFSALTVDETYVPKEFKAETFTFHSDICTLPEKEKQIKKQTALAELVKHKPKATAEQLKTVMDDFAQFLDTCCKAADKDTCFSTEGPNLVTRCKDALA
T2 sequence (P07766 23-126): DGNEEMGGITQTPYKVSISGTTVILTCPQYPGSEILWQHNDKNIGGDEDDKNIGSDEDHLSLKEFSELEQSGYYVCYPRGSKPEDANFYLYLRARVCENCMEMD

B1: PRO1778 (multispecific antibody)
chain 1: not shown
chain 2: DVVMTQSPSSLSASVGDRVTITCQASQIISSRSAWYQQKPGQPPKLLIYQASKLASGVPSRFSGSGSGTDFTLTISSLQPEDFATYYCQCTYIDSNFGAFGGGTKLTVLGGGGGSGGGGSGGGGSGGGGSEVQLVESGGGLVQPGGSLRLSCAASGFSFSSSYWICWVRQAPGKGLEWVGCVFTGDGTTYYASWAKGRFTISRDNSKNTVYLQMNSLRAEDTATYFCARPVSVYYYGMDLWGQGTLVTVSSGGGGSGGGGSQVQLQESGPGLVKPSETLSLTCKVSGFSFSSGYDMCWIRQPPGKGLEWIGCVVAGSVDITYYASWAKGRVTISVDSSKNQFSLKLSSVTAADTAVYYCARKDAYSDAFNLWGQGTLVTVSSGGGSGGGSEVQLVESGGGLVQPGGSLRLSCAASGFSFSANYYPCWVRQAPGKCLEWIGCIYGGSSDITYDANWTKGRFTISRDNSKNTVYLQMNSLRAEDTAVYYCARSAWYSGWGGDLWGQGTLVTVSS
Regarding B1, the half-maximal inhibitory concentration (IC50) in [1] was determined as 1.42 µg/mL; in test [3] it was 6.72 µg/mL. The “EC50, NFkB reporter gene assay, HCC1954 cells” value in test [2] was determined as 0.661 nM.

B2: PRO1558 (multispecific antibody)
chain 1: DIQMTQSPSSLSASVGDRVTITCQASENIYSFLAWYQQKPGKAPKLLIYSASKLAAGVPSRFSGSGSGTDFTLTISSLQPEDFATYYCQQTNRYSNPDIYNVFGTGTKVTVLGGGGGSGGGGSGGGGSGGGGSEVQLVESGGGLVQPGGSLRLSCAASGIDFNSNYYMCWVRQAPGKGLEWIGCIYVGSHVNTYYANWAKGRFTISRDNSKNTVYLQMNSLRAEDTAVYYCATSGSSVLYFKFWGQGTLVTVSSGGGGSGGGGSDVVMTQSPSSLSASVGDRVTITCQASQIISSRSAWYQQKPGQPPKLLIYQASKLASGVPSRFSGSGSGTDFTLTISSLQPEDFATYYCQCTYIDSNFGAFGCGTKLTVLGGGSGGSDIQMTQSPSSLSASVGDRVTITCQSSQSVFSNNYLAWFQQKPGQSPKRLIYSASTLASGVPSRFSGSGSGTDFTLTISSLQPEDFATYYCLGSYACSSADCYVFGTGTKVTVLG
chain 2: not shown
In the case of B2, in test [4], the KD1 was found to be 15.7 nM. The Kd in [4] amounted to 7.95 nM; with mouse serum albumin, 11.5 nM; in test [6] it was 0.868 nM; with human serum albumin it was 0.501 nM; in [10], 0.3 nM. Further, the kd2 in [4] is 0.00335 s⁻¹. Besides, the koff in [5] is 0.00496 s⁻¹; in the test with mouse serum albumin, 0.0011 s⁻¹; in test [6], 0.000493 s⁻¹; with human serum albumin, 0.000123 s⁻¹; in test [10], 6.07e-05 s⁻¹. For the same molecule, the on-rate (kon) came out at 95800 M⁻¹ s⁻¹ in the test with mouse serum albumin; 568000 M⁻¹ s⁻¹ in test [6]; 315000 M⁻¹ s⁻¹ in test [8]; 245000 M⁻¹ s⁻¹ with human serum albumin; 202000 M⁻¹ s⁻¹ in [10]. For the same molecule, the binding result in test [7] is listed as “no binding”. In addition, the “IC50, NFAT reporter, HCC1954 cells” value in test [9] worked out at 2.71 nM. Moreover, the “rel. max. activation vs PRO1497, NFAT reporter, HCC1954 cells” value in test [9] was determined as 53%.

B3: PRO1455 (multispecific antibody)
chain 1: DIQMTQSPSSLSASVGDRVTITCQASENIYSFLAWYQQKPGKAPKLLIYSASKLAAGVPSRFSGSGSGTDFTLTISSLQPEDFATYYCQQTNRYSNPDIYNVFGTGTKVTVLGTVAAPSVFIFPPSDEQLKSGTASVVCLLNNFYPREAKVQWKVDNALQSGNSQESVTEQDSKDSTYSLSSTLTLSKADYEKHKVYACEVTHQGLSSPVTKSFNRGECGGGGSGGGGSDIQMTQSPSSLSASVGDRVTITCQSSQSVFSNNYLAWFQQKPGQSPKRLIYSASTLASGVPSRFSGSGSGTDFTLTISSLQPEDFATYYCLGSYACSSADCYVFGTGTKVTVLGGGGGSGGGGSGGGGSGGGGSEVQLVESGGGLVQPGGSLRLSCAASGFSLSSYDMSWVRQAPGKGLAWIGASYASGPTYYASWAKGRFTISRDNSKNTVYLQMNSLRAEDTATYFCARGGWTGTSHSNIWGQGTLVTVSS
chain 2: EVQLVESGGGLVQPGGSLRLSCAASGIDFNSNYYMCWVRQAPGKGLEWIGCIYVGSHVNTYYANWAKGRFTISRDNSKNTVYLQMNSLRAEDTAVYYCATSGSSVLYFKFWGQGTLVTVSSASTKGPSVFPLAPSSKSTSGGTAALGCLVKDYFPEPVTVSWNSGALTSGVHTFPAVLQSSGLYSLSSVVTVPSSSLGTQTYICNVNHKPSNTKVDKKVEPKSCGGGGSGGGGSDIQMTQSPSSLSASVGDRVTITCQASQSINDYLAWYQQKPGKAPKLLIYKASTLASGVPSRFSGSGSGTDFTLTISSLQPEDFATYYCQQAYIITDIDNVFGTGTKVTVLGGGGGSGGGGSGGGGSGGGGSQVQLQESGPGLVKPSETLSLTCKVSGFSFSSGYDMCWIRQPPGKGLEWIGCVVAGSVDITYYASWAKGRVTISVDSSKNQFSLKLSSVTAADTAVYYCARKDAYSDAFNLWGQGTLVTVSS
Consider B3, for which the IC50 in test [11] stood at 2.8 µg/mL; in [12], 2.85 µg/mL. In addition, in test [9], the “IC50, NFAT reporter, HCC1954 cells” value worked out at 4.07 nM. For the same molecule, the “fold weaker activation than PRO1454, NFAT reporter, HCC1954 cells” value in test [13] amounted to 27 fold.

B4: PRO1498 (multispecific antibody)
chain 1: B3 chain 1
chain 2: B3 chain 2 with Q324A
For the molecule B4, in [4], the KD1 came out at 29.6 nM, the equilibrium dissociation constant (Kd) was found to be 19.5 nM and the kd2 was determined as 0.00198 s⁻¹. The koff in test [5] was found to be 0.00584 s⁻¹. The same molecule gave an IC50 in test [11] of 8.54 µg/mL. In test [6], the dissociation constant (Kd) amounted to 0.563 nM, the koff amounted to 0.000278 s⁻¹ and the association rate constant (kon) amounted to 495000 M⁻¹ s⁻¹. For the same molecule, the kon in test [8] was found to be 197000 M⁻¹ s⁻¹. In [12], this molecule registered an IC50 of 7.05 µg/mL. In [9], the “IC50, NFAT reporter, HCC1954 cells” value amounted to 172 nM and the “rel. max. activation vs PRO1497, NFAT reporter, HCC1954 cells” value was 71%. In addition, the binding result in test [10] is given as “no binding (tested: 90 nM highest concentration)”. In [14], this molecule came in with a Kd of 332 nM, a koff of 0.000379 s⁻¹ and a kon of 1140 M⁻¹ s⁻¹. Also, in [13], the “fold weaker activation than PRO1497, NFAT reporter, HCC1954 cells” value was found to be 475 fold.

B5: PRO1780 (multispecific antibody)
chain 1: not shown
chain 2: DIQMTQSPSSLSASVGDRVTITCQASQSISNRLAWYQQKPGKAPKLLIYSASTLASGVPSRFSGSGSGTDFTLTISSLQPEDFATYYCQSTYYGNDGNAFGCGTKVTVLGGGGGSGGGGSGGGGSGGGGSEVQLVESGGGLVQPGGSLRLSCAASGFSFSANYYPCWVRQAPGKCLEWIGCIYGGSSDITYDANWTKGRFTISRDNSKNTVYLQMNSLRAEDTAVYYCARSAWYSGWGGDLWGQGTLVTVSSGGGGSGGGGSQVQLQESGPGLVKPSETLSLTCKVSGFSFSSGYDMCWIRQPPGKGLEWIGCVVAGSVDITYYASWAKGRVTISVDSSKNQFSLKLSSVTAADTAVYYCARKDAYSDAFNLWGQGTLVTVSSGGGSGGGSEVQLVESGGGLVQPGGSLRLSCAASGFSFSSSYWICWVRQAPGKCLEWVGCVFTGDGTTYYASWAKGRFTISRDNSKNTVYLQMNSLRAEDTATYFCARPVSVYYYGMDLWGQGTLVTVSS
Consider B5, for which the IC50 is 0.695 µg/mL in [1] and 32.6 µg/mL in test [3]. Further, the “EC50, NFkB reporter gene assay, HCC1954 cells” value in [2] is 0.603 nM.
